Experimental data taken from patent publication US20120156203A1 (Genentech, published 2012).

B1: anti-IL13 monoclonal antibody 227-26 (antibody, V domains shown)
VH: QVQLQQSGDDLVLPGASVKLSCKASGYTFTSYWINWIKQRPGQGLEWIGHIAPGSGSTYFNEMFKGKATLTVDTSSSTAYIQLSSLSSEDSAVYFCARSDIFLSYAMDYWGQGTSVTVSS
VL: DVLMTQTPLSLPVSLGDQASISCRSSQSIVHSNGNTYLQWYLQKPGQSPKLLIYKVSNRFSGVPDRFSGSGSGTDFTLKISRVEAEDLGVYYCFQGSHVPYTFGGGTKLEIK
notes: also called hybridoma ATCC PTA-5654
B2: anti-IL13 monoclonal antibody 228B/C-1 (antibody, V domains shown)
VH: QVQLQESGPGLVAPSQSLSITCTVSGFSLNAYSVNWVRQPPGKGLEWLGMIWGDGKIVYNSALKSRLNISKDSSKSQVFLKMSSLQSDDTARYYCAGDGYYPYAMDNWGHGTSVTVSS
VL: NIVLTQSPASLAVSLGQRATISCRASKSVDSYGNSFMHWYQQKPGQPPKLLIYLASNLESGVPARFSGSGSRTDFTLTIDPVEADDAASYYCQQNNEDPRTFGGGTKLEIK
B3: chimeric Fab of 228B/C (Fab, V domains shown)
VH: B2 VH
VL: B2 VL
modifications: Used labeled in the competition assay of paragraph 260; the label is not named.
notes: also called chimeric clone

Assays:
human IL13 [1] = target: T1, human IL13 (human, UniProt P35225 35-146); experiment: ELISA; wells coated with E. coli expressed non-glycosylated human IL13 (0.1 µg/mL); bound MAb detected with HRP-goat anti-mouse IgG (Fc); OD 450 nm
T1 construct: also called E. coli expressed non-glycosylated human IL13 (R&D Systems); recombinant IL13
Method: (§1) The reactivity of various anti-IL13 monoclonal antibodies was tested by ELISA. Different wells of 96-well microtest plates were coated with either E. coli expressed non-glycosylated human IL13 (R&D Systems), 293T cell expressed glycosylated MT-IL13/Fc, or E. coli expressed mouse IL13 (R&D Systems) by the addition of 100 μL of IL13 protein at 0.1 μg/mL in PBS. After overnight incubation at room temperature, the wells were treated with PBSTB (PBST containing 2% BSA) to saturate the remaining binding sites. The wells were then washed with PBST.
(§2) One hundred microliters of two-fold serially diluted anti-IL13 MAbs (0.5 μg/mL (3.33 nM) to […] (0.00033 nM)) were added to the wells for 1 hour at room temperature. An anti-IL13 MAb JES-5A2 from (BD Biosciences-Pharmingen, San Diego, Calif.) was also tested as a positive control. This antibody was generated by using E. coli expressed human IL13 as immunogen. An isotype-matched mouse anti-HIV-1 gp120 MAb was used as irrelevant negative control. The wells were then washed with PBST. Bound antibody was detected by incubation with diluted HRP-goat anti-mouse IgG (Fc) (Jackson ImmunoResearch) for 1 hour at room temperature. Peroxidase substrate solution was then added for color development as described above. The OD₄₅₀ was measured using an ELISA reader.

mouse IL13 = target: T2, mouse IL13 (mouse, UniProt P20109 22-131, limits assumed); experiment: ELISA on plate-coated E. coli expressed mouse IL13
T2 construct: also called E. coli expressed mouse IL13 (R&D Systems); murine IL13
T2 sequence: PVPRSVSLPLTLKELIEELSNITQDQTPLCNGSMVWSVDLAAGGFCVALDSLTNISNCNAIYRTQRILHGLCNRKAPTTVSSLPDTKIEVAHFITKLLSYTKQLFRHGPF
Method: as §1, §2

[2] = target: T3, 12-mer peptide of human IL13, YCAALESLINVS (human, synthesized via SPOT on cellulose membrane); experiment: peptide spot analysis on cellulose membrane
T3 peptide: YCAALESLINVS
From the text: This epitope was further confirmed by peptide spot analysis. The entire human IL13 peptide was scanned with a series of overlapping 12-mer peptides synthesized via SPOT on cellulose membrane. The only anti-IL13 MAb reactive peptide was identified as a 12-mer peptide of amino acid #44-56, […] (SEQ ID NO 19), which is overlapping with the region identified through domain swapping experiments.

human IL13 [3] = target: T1, human IL13; experiment: cell-based or functional assay
[4] = target: T4, IL-13 (antigen captured on the plate in the Fab ELISAs of Examples 9 and 10) (UniProt P35225 35-146); experiment: ELISA; IL-13 captured on the plate in a limiting amount; Fab titrated 1:3; detected with a secondary antibody specific for Fab; A410 nm
T4 construct: also called the antigen IL-13

[5] = target: T4, IL-13 (antigen captured on the plate in …); experiment: ELISA; IL-13 captured on the plate in a limiting amount; Fab titrated 1:3; detected with a secondary antibody specific for Fab; A 560 nm
[6] = target: T4, IL-13 (antigen captured on the plate in …); experiment: ELISA; IL-13 captured on the plate in a limiting amount; Fab titrated 1:3; detected with a secondary antibody specific for Fab; A560 nm
[7] = target: T4, IL-13 (antigen captured on the plate in …); experiment: as above; remark: listed apart in the source
[8] = target: T4, IL-13 (antigen captured on the plate in …); experiment: as above; remark: listed apart in the source
[9] = target: T4, IL-13 (antigen captured on the plate in …); experiment: competition ELISA; IL-13 captured on the plate; purified Fab pre-mixed with a constant concentration of labeled chimeric anti-IL-13 Fab (228 B/C #3); Abs 590 nm of bound labeled Fab
Method: To confirm that these combinatorial candidates maintained function, a competition assay was performed. For this assay, IL-13 was captured on an ELISA plate. The candidates, which are purified Fabs, were pre-mixed in varying concentrations to a constant concentration of labeled chimeric anti-IL-13 Fab. This mixture was added to the ELISA plate. The labeled chimeric anti-IL-13 capable of binding to the plate-bound IL-13 were detected.

T1 sequence (P35225 other isoform, or with tags, fused parts or gaps limits assumed): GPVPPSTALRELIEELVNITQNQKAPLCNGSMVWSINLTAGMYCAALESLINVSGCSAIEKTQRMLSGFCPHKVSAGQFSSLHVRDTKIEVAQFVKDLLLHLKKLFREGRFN
T4 sequence (P35225 35-146 limits assumed): as the sequence (P35225 other isoform, or with tags, fused parts or gaps limits assumed) above, with R110Q counted along it

Binder	EC50 (read off the curve) (human IL13 [1])	binding result (mouse IL13)	binding result [2]	molar stoichiometric ratio (MAb:IL13) for complete inhibition, CD14 and CD23 assays (human IL13 [3])	molar stoichiometric ratio between 228B/C-1 and IL13 for complete inhibition, Stat6 assay (human IL13 [3])	EC50 (read off the curve) [4]	EC50 (read off the curve) [5]	EC50 (read off the curve) [6]	EC50 (read off the curve) [7]	EC50 (read off the curve) [8]	IC50 (read off the curve) [9]
B1	~0.02 nM	no binding									
B2	~0.01 nM		binds	0.5 MAb:IL13 molar ratio	~0.5 MAb:IL13 molar ratio						
B3						~20 ng/mL	~7 ng/mL	~10 ng/mL	~4 ng/mL	~7 ng/mL	~90 ng/mL
